Source: the supplement of paper PMC12764529
± gives the half width of the 95% confidence interval.

How the values were obtained:
[1] = folding stability dG unfold from chymotrypsin proteolysis; higher = more stable
Outline: (§1)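 Unfolding free energy was derived, per protease or combined, by relating Bayesian-fitted K50 values from sequencing counts to a sequence-predicted unfolded-state K50 and a shared folded-state K50. The underlying digests exposed cysteine-free mini-proteins under 80 residues, in a PA-tagged cDNA display construct, to trypsin and chymotrypsin at 11 threefold-diluted concentrations and to a no-protease condition. A filter kept only designs with AlphaFold2 dimer inter-PAE above 15.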

[2] = folding stability dG unfold from trypsin proteolysis; higher = more stable
Outline: as §1

[3] = folding stability dG unfold (combined trypsin and chymotrypsin); higher = more stable
Outline: as §1

For “SAGGSKKEIEALKGKTVTFPKIRDPKTNELLEPVKVKIVEVKYDKDTKKIYIKVEVDGKIYTFEIDSAGGSA [r2_314_TrROS_Hall]”, the “folding stability dG unfold” value [1] was 11.9 ± 0.259 kJ/mol, the “folding stability dG unfold” value [2] was 3.63 ± 0.795 kJ/mol and the “folding stability dG unfold” value [3] was 10.4 ± 1.55 kJ/mol.
For “SAGGMKVEVEVDPETGELYLKIYFPETGEVALVKIDPKTKTAEVVGSTDFVKEALPELGINNPTLVPGSAGG [r13_511_TrMRF]”, the “folding stability dG unfold” value [1] was 6.66 ± 0.368 kJ/mol, the “folding stability dG unfold” value [2] was 4.43 ± 0.213 kJ/mol and the “folding stability dG unfold” value [3] was 5.96 ± 0.255 kJ/mol.
For “SAGGSAGGSAGGSKMYKIKIVNKKTKKVITVEVSEEDIEKALEAAKKAGVEKIEIEEVPSAGGSAGGSAGGS [r4_102_TrROS_Hall]”, the “folding stability dG unfold” value [1] was 7.1 ± 0.502 kJ/mol, the “folding stability dG unfold” value [2] was 8.5 ± 0.711 kJ/mol and the “folding stability dG unfold” value [3] was 7.6 ± 0.544 kJ/mol.
With “SAGGMTVETTTVTLAAGTTYTVTTPSDSTVEVVDTETGVVRRFDVPASTDFSVTLPADRTYDITVVRRSAGG [r19_78_JUSTAS]” the “folding stability dG unfold” value [1] was 5.64 ± 0.092 kJ/mol, the “folding stability dG unfold” value [2] was 3.319 ± 0.0222 kJ/mol and the “folding stability dG unfold” value [3] was 4.82 ± 0.134 kJ/mol.
In the case of “SAGGSAGGSSPLLEAALEIAKTLPPDSEVELPILNPETGTFVRVRVVYDEETGEFKVESVEFSSAGGSAGGS [r12_186_TrMRF]”, the “folding stability dG unfold” value [1] is reported as 6.03 ± 0.502 kJ/mol, the “folding stability dG unfold” value [2] is reported as 6.26 ± 0.0753 kJ/mol and the “folding stability dG unfold” value [3] is reported as 6.44 ± 0.418 kJ/mol.
With “SAGGSAGGKEPFTVDKVEATVPFPGADGTEGVVLVTLPNGEKRLIPASELPLENLQPDGTVSSASAGGSAGG [r6_609_TrMRF]” the “folding stability dG unfold” value [1] was 1.37 ± 0.155 kJ/mol, the “folding stability dG unfold” value [2] was 0.672 ± 0.142 kJ/mol and the “folding stability dG unfold” value [3] was 1.26 ± 0.46 kJ/mol.
In the case of “SAGGSAGGSAGGGMPSVTVTPVTLTVPTEVLVDGGPLLREREVRLTVITYPYTNTVVVDSAGGSAGGSAGGS [r10_533_JUSTAS]”, the “folding stability dG unfold” value [1] is reported as 2.07 ± 0.669 kJ/mol, the “folding stability dG unfold” value [2] is reported as -1.98 ± 0.837 kJ/mol and the “folding stability dG unfold” value [3] is reported as 0.961 ± 0.414 kJ/mol.
For “SAGGEDGKWREQTFTIENPEDGKKAKIEIEYNPENGYASIEFPGNGKKIDVPFKSLEDILDAIKKIGISAGG [r13_439_TrROS]”, the “folding stability dG unfold” value [1] was 0.365 ± 0.669 kJ/mol, the “folding stability dG unfold” value [2] was -0.0838 ± 0.31 kJ/mol and the “folding stability dG unfold” value [3] was 0.402 ± 0.502 kJ/mol.
For “SAGGSAGGSAEITVEWPNGRPVTVEPDPDSGMYEARFPDGWVVRAPFTNGKIPIDWIPPKDVSAGGSAGGSA [r18_405_TrROS]”, the “folding stability dG unfold” value [1] was 1.18 ± 0.293 kJ/mol, the “folding stability dG unfold” value [2] was -2.42 ± 1.17 kJ/mol and the “folding stability dG unfold” value [3] was 0.0136 ± 0.335 kJ/mol.
For “SAGMDPDDPDYMIFINLDIKLEVEPDPDNGKPYVKLEIRITNIMVFDPDNGKMEMEPIEIEMTLPPDDISAG [r5_270_TrROS]”, the “folding stability dG unfold” value [1] was 12.9 ± 0.711 kJ/mol, the “folding stability dG unfold” value [2] was 5.42 ± 0.347 kJ/mol and the “folding stability dG unfold” value [3] was 10.4 ± 1.26 kJ/mol.
For “SMREITVTLPSEELAEELREAAEALGVEEVEVSRLPEDRLEIRIKTNSDPESVIQALKDLAEKRGLEVAASA [r9_1003_JUSTAS]”, the “folding stability dG unfold” value [1] was 6.94 ± 0.36 kJ/mol, the “folding stability dG unfold” value [2] was 7.22 ± 0.31 kJ/mol and the “folding stability dG unfold” value [3] was 6.72 ± 0.356 kJ/mol.
For “SAGGSAGGSAGGPYIRVLRSDGKPIVVPVRADDPELFDRVVAELEAAGYPVVKAEVLRLSAGGSAGGSAGGS [r10_231_TrMRF]”, the “folding stability dG unfold” value [1] was 0.647 ± 0.502 kJ/mol, the “folding stability dG unfold” value [2] was -3.42 ± 3.26 kJ/mol and the “folding stability dG unfold” value [3] was -0.172 ± 0.389 kJ/mol.
In the case of “MLLEFESEEELEKAIKELIEKAKKEVEEKGKKNEELKINIPVILHDKETGKETTRPITINIKPDGKITILDS [r1_316_JUSTAS]”, the “folding stability dG unfold” value [1] is reported as 4.38 ± 0.544 kJ/mol, the “folding stability dG unfold” value [2] is reported as 3.99 ± 0.544 kJ/mol and the “folding stability dG unfold” value [3] is reported as 4.23 ± 0.962 kJ/mol.
With “SAGGFKIERDPEDGQVTITFPMPGFGMPFRISIPYDPNGDIDVDIEPSPGMPPHHRDMIENLARELADSAGG [r13_139_TrROS]” the “folding stability dG unfold” value [1] was 1.17 ± 1.8 kJ/mol, the “folding stability dG unfold” value [2] was 2.74 ± 0.669 kJ/mol and the “folding stability dG unfold” value [3] was 2.35 ± 0.544 kJ/mol.
In the case of “SAGGSAGGSAMLVALVRVPGTDKPVVARLPREIGREAAEELLREAFPDAEVLEIVEVPEEELSAGGSAGGSA [r18_242_TrMRF]”, the “folding stability dG unfold” value [1] is reported as 7.161 ± 0.0502 kJ/mol, the “folding stability dG unfold” value [2] is reported as 1.87 ± 0.13 kJ/mol and the “folding stability dG unfold” value [3] is reported as 5.96 ± 0.13 kJ/mol.
With “SAGGSAGGSAGGSMVVEFSVGDTPIATIPFPGTEEEAKAAVEKLKEEYPSAEVKFTVHDESAGGSAGGSAGG [r7_81_JUSTAS]” the “folding stability dG unfold” value [1] was 0.707 ± 0.314 kJ/mol, the “folding stability dG unfold” value [2] was 1.97 ± 0.13 kJ/mol and the “folding stability dG unfold” value [3] was 1.43 ± 0.586 kJ/mol.
With “SAGGSIEEILKAIPDAEKYEIDREKGIAYVTKKNTLYIVTVPRTSLPSPNGVLEPVSPISIKELPLESAGGS [r16_65_JUSTAS]” the “folding stability dG unfold” value [1] was 2.25 ± 0.418 kJ/mol, the “folding stability dG unfold” value [2] was 0.535 ± 0.197 kJ/mol and the “folding stability dG unfold” value [3] was 1.87 ± 0.372 kJ/mol.
For “SAGGSAGGSKKEEFYKITVYSPNKKAEEIAKKIQEETGTEIVEVKAEKFKDGGIKVIALVKKTSAGGSAGGS [r12_359_TrMRF]”, the “folding stability dG unfold” value [1] was -2.33 ± 2.8 kJ/mol, the “folding stability dG unfold” value [2] was -0.891 ± 0.795 kJ/mol and the “folding stability dG unfold” value [3] was -0.392 ± 2.01 kJ/mol.
In the case of “SAGGSAGGSAGKKKLVIEQRPDGLVRIRLPNGKVLEVSREELEELAKELGIDKVEIYPVPSAGGSAGGSAGG [r11_312_TrROS_Hall]”, the “folding stability dG unfold” value [1] is reported as 8.647 ± 0.0795 kJ/mol, the “folding stability dG unfold” value [2] is reported as 6.6 ± 0.105 kJ/mol and the “folding stability dG unfold” value [3] is reported as 7.64 ± 0.209 kJ/mol.
In the case of “SAGGNPASATVTINEDILVNGSPEEARALVEARAKAEGITITDVTITPVPGDPSVYRVSATFSKTLASAGGS [r8_479_JUSTAS]”, the “folding stability dG unfold” value [1] is reported as 7.95 ± 0.418 kJ/mol, the “folding stability dG unfold” value [2] is reported as 7.99 ± 0.159 kJ/mol and the “folding stability dG unfold” value [3] is reported as 7.84 ± 0.628 kJ/mol.
In the case of “SAGGMTLRITTADGRVIEIEADSLEDALAALRTLLGLKPGDVLTVEVVVEVDGEKKTFTLTIVLPPEPSAGG [r13_145_TrROS_Hall]”, the “folding stability dG unfold” value [1] is reported as 25.4 ± 0.372 kJ/mol, the “folding stability dG unfold” value [2] is reported as 20.7 ± 0.586 kJ/mol and the “folding stability dG unfold” value [3] is reported as > 25.1 kJ/mol.
